According to the RNAGym collection of RNA variant scans (doi:10.7554/elife.80360):

B1: HDV Ribozyme (parent)
chain: GGCCGGCAUGGUCCCAGCCUCCUCGCUGGCGCCGGCUGGGCAACAUUCCGAGGGGACCGUCCCCUCGGUAAUGGCGAAUGGGACCCA

Variants of: B1
Experiment: self-cleavage, relative activity (ratio to wild type); higher = more cleavage; co-transcriptional

Variant | self-cleavage
GGCCGGCAUGGUCCCAGCCUCCUCGCUGGCGCCGGCUGGGCAACAUGCCGAGUGGACCGUCCCCUCGGUAAUGGCGAAUGGGACCCA [U47G G53U] | 0.973
GGCCCGCAUGGUCCCAGCCUCCUCGCUGGCGCCGGCUGGGCAACAUUCCGAGGUGACCGUCCCCUCGGUAAUGGCGAAUGGGACCCA [G5C G54U] | 0.217
GGCCUGCAUGGUCCCAGCCUCCUCGAUGGCGCCGGCUGGGCAACAUUCCGAGGGGACCGUCCCCUCGGUAAUGGCGAAUGGGACCCA [G5U C26A] | 0.697
GGCCGGCAUGGUCCCAGCCUCCUCGCUGGCGCCGGCUGGGCAACAUUCCGAGGGGACCGUCCCCUCGGUAAUGGCAAAUGGGAGCCA [G76A C84G] | 0.939
GGCCGGCAUGGUCCCAGCCUCCUCGCUGGCGCCGGCUGGGCAACAUUCCGCGGGGACCGUGCCCUCGGUAAUGGCGAAUGGGACCCA [A51C C61G] | 0.731
GGCCGGCAUGGUCCCAGCCUCCUCGCUGGUGCCGGCUGGGCAACAUUCCGAGGGGACCGUCCCCUCGGUAAUGGCGAAUGGGACCCC [C30U A87C] | 0.755
GGCCGGCAUGGUCCCAGCCUCCUCGCUGGCGCCGGCUGGGCAACAUUUCGAGGGGACAGUCCCCUCGGUAAUGGCGAAUGGGACCCA [C48U C58A] | 1.06
CGCCGGCAUGGUCCCAGCCUCCUCGCUGGCUCCGGCUGGGCAACAUUCCGAGGGGACCGUCCCCUCGGUAAUGGCGAAUGGGACCCA [G1C G31U] | 0.0791
GGCCGGCAUGGUCCCAGCCUCCUCGCUGGCGCCGGCUGGGCAACAUUCCGACGGGUCCGUCCCCUCGGUAAUGGCGAAUGGGACCCA [G52C A56U] | 1.12
GGCCGGCAUGGUCCCAGCCUCCUGGCUGGCGCCGGCUGGGCAACAUUCCGAGGGGACCGUCCCCUCGGUAAUGGCGAAUGGGACUCA [C24G C85U] | 0.107
GGCAGGCAUGGUCACAGCCUCCUCGCUGGCGCCGGCUGGGCAACAUUCCGAGGGGACCGUCCCCUCGGUAAUGGCGAAUGGGACCCA [C4A C14A] | 0.119
GGCCGGCAUGGUCCCAGCCUCCACGCUGGCGCCGGCUGGGCAACAUUCCGAGGGGACCGUCCCCUCGGUAAUGGAGAAUGGGACCCA [U23A C75A] | 0.277
GGCCGGCAUGGUCCCAGCCUCCUAGCUGGCGCCGGCUGGGCAAAAUUCCGAGGGGACCGUCCCCUCGGUAAUGGCGAAUGGGACCCA [C24A C44A] | 0.217
GGCCGGCAUGGUCCCAGCCUCCUCGCUGACGCCGGCUGGGCAACAUUCCGAGGGGACCGUCUCCUCGGUAAUGGCGAAUGGGACCCA [G29A C62U] | 0.159
GGCCGGCAUGGUCCCAGCCUCCUCGCUGGCGCCGGCUGGGCAACAUUCCGAGGGGACCGUUCCCUCGGUAAUGGCGAAUAGGACCCA [C61U G80A] | 0.242
GGCCGGUAUGGUCCCAGCCUCCUCGCUGGCGCCGGCUGGGCAACAUUCCGAGGGGACCGUGCCCUCGGUAAUGGCGAAUGGGACCCA [C7U C61G] | 0.743

Variant | self-cleavage
GGCCAGCAUGGUCCCAGCCUCCUCGCUGGCGCCGGCUGGGCAACAUUCCGAGGGGACCGUCCCCUCGGUAAUGGCGCAUGGGACCCA [G5A A77C] | 0.0504
GGCCGGCAUGGUCCCAGCCUCCUCGCUGGCGCCGGCUGGGCAACAUCCCGAGGGGACCGUCCCCUCGGUAAUGGCGAUUGGGACCCA [U47C A78U] | 0.277
UGCCGGCAUGGUCCCAGCCUCCUCGCUGGCGCCGGCUGGGCAACAUUCCGAGGGGACCGUCCCCUCGUUAAUGGCGAAUGGGACCCA [G1U G68U] | 0.287
CGCCGGCAUGGUCCCAGCCUCCUCGCUGACGCCGGCUGGGCAACAUUCCGAGGGGACCGUCCCCUCGGUAAUGGCGAAUGGGACCCA [G1C G29A] | 0.0536
GGCCGGCAUGGCCCCAGCCUCCUCGCUGGCGCCGGCUGGGCAUCAUUCCGAGGGGACCGUCCCCUCGGUAAUGGCGAAUGGGACCCA [U12C A43U] | 0.0923
GGCCGGCCUGGUCCCAGCCUCCUCGCUGGCGCCAGCUGGGCAACAUUCCGAGGGGACCGUCCCCUCGGUAAUGGCGAAUGGGACCCA [A8C G34A] | 0.0475
GGCCGGCAUGGUCCCAGCCUCCUCGCUGGCGCCGGAUGGGCAACAUUCCGAGGGGACCGUCCCCUCGGUAAUGGCGAAUGGAACCCA [C36A G82A] | 0.071
GGCCGGCAUGGUCCCAGCCUCCUCGCUGGAGCCGGCUGGGUAACAUUCCGAGGGGACCGUCCCCUCGGUAAUGGCGAAUGGGACCCA [C30A C41U] | 0.328
GGCGGGCAUGGUCCCAGCCUCCUCGCUGGCGCCGGCUGGGCAACAUUCCGAGGGGACCGUCCCCUCGGUAAUGGCGAUUGGGACCCA [C4G A78U] | 0.116
GGCCGGCAUGGUCCCAGCCUCCUCGCUGGCGCCGGCUGGGCAACAUUCCGAGGGGACCAUCCCCUCGGUAAUGGCGUAUGGGACCCA [G59A A77U] | 0.574
GGCCGGCAUGGUCCCAACCUCCUCGCUGGCGCCGGCUGGGCAACAUUCCGAGGAGACCGUCCCCUCGGUAAUGGCGAAUGGGACCCA [G17A G54A] | 0.786
GGCCGGCAUGGUCCCAGCCUCCUCGCUGGCGCCGGCUGGGCAACAUUCCUAGGGGACCGUCCCCUCGGUAAUGGCGAAUGGUACCCA [G50U G82U] | 0.633
GGCCGGCAUGGUCCUAGCCUCCUCGCUGGCGCCGGCUGGGCAACAUUCCGAGGGGGCCGUCCCCUCGGUAAUGGCGAAUGGGACCCA [C15U A56G] | 1.35
GGCCGGCAUGGUCCCAGCCUCCUCGCUGGCGUCGGCUGGGCAACAUUCCGAGGGGACCGUCCCCUCGGUAGUGGCGAAUGGGACCCA [C32U A71G] | 0.903
GGCCGGCAUGGUCCCAGCCUCCUCGCUGGCGCCGGCUGGGCAACAUUGCGAGGGGACCGUCCCCUCGGUAAUGCCGAAUGGGACCCA [C48G G74C] | 0.0755
GUCCGGCAUGGUCCCAGCCUCCUCGCUGGCGCCGGCUGGGCAACAUUCCGAGGGGACCGUCCCCCCGGUAAUGGCGAAUGGGACCCA [G2U U65C] | 0.0391
